Measured values taken from patent US20100260765A1 (AstraZeneca / MedImmune, published 2010).
Changes are numbered by the printed parent chain.

B1: 33B1 (antibody, V domains shown)
VH: EVQLVESGGGLVKPGGSLRLSCAASGFTFSSYTMNWVRQAPGKGLEWVSFIDSRSSYIYYADSVKGRFTISRDNAKNSLYLQMNSLRAEDTAVYYCSKDDWFEELWGQGTLVTVSS
VL: DIQMTQSPSSLSASVGDRVTITCRASQGIRNDLGWYQQKPGKAPKRLIYATSSLQSGVPSRFSGSGSGTEFTLTISSLQPEDFATYYCLHHNSFPWTFGQGTKVEIK
B2: 27A3 (antibody, V domains shown)
VH: QLQLQESGPGLVKPSETLSLTCTVSGGSISSRSDYWGWIRQPPGKGLEWIGTIYYSGDTYYNPSLKSRVTISVDTSKNQFSLKLSSVTAADTAVYYCARQQLVLYYFDYWGQGTLVTVSS
VL: EIVLTQSPGTLSLSPGERATLSCRASQSVSSSYLAWYQQKPGQAPRLLIYATSNRATGIPDRFSGSGSGTDFTLTISRLEPEDFAVYYCQQHGSSPPLTFGGGTKVEIK
B3: 27D10 (antibody, V domains shown)
VH: B2 VH with D58S, Y60F
VL: not shown
B4: 21H9 (antibody, V domains shown)
VH: QVPLVESGGGVVQPGRSLRLSCAASGFTFSSYGMHWVRQAPGKGLEWVAVIWYDGSNKYYADSVQGRFTISRDNSKNTLYLQMNSLRAEDTAVYYCARGVTMVRGLIIARYYYGLDVWGQGTTVTVSS
VL: DIVMTQTPLSSPVTFGQPASISCRSSQSLVHSDGNTYLSWLQQRPGQPPRLLIYKISNRFFGVPDRFSGSGAGTDFTLKISRVEAEDVGLYYCMQSTQFPLTFGGGTKVEIK
B5: 30D7 (antibody, V domains shown)
VH: B4 VH with Q65K, L106V
VL: B4 VL with F15L, S81G
B6: 33C3 (antibody, V domains shown)
VH: QVQLVESGGGLVKPGESLRLSCAASGFTFSDYYMSWIRQAPGKGLEWVSYISHGGSTIYYADSVKGRFTISRDNAKNSLYLQMNSLRVEDTAVYFCARDDFWSGYYFNWFDPWGQGALVTVSS
VL: DIQMTQYPLSLSASVGDRVTITCRASQSISSFLNWYHQKPGKAPKLLIYGTSSLQSGVPSRFSGSGSGTDFTLTISSLQPEDFATYYCQQTYSIPLTFGGGTNVEIK
B7: 29F7 (antibody, V domains shown)
VH: QVQLVQSGAEVKKPGASVKVSCKASGYTFTSYDINWVRQATGQGLEWMGWMNPNSGKTGYAQKFQGRVTMTRSTSISTAYMELSSLRSEDTAVYYCARGGYSNLGWFDPWGQGTLVTVSS
VL: DIQMTQSPSSVFASVGDRVTITCRASQGISTWLAWYQQKPGKAPKFLIYAASSLQSGVPSRFSGSGSGTDFTLTISSLQPDDFATYYCQQANNFPFTFGPGTKVDIK
B8: 30E3 (antibody, V domains shown)
VH: EVQLLESGGGLVQPGGSLRLSCAASGFTFSNYALSWVRQAPGKGLEWVSAISGSGRNTYYADSVKGRFTLSRDNSKNTLFLQMNSLRAEDTAVYYCAKASGDNWGQGTLVTVSS
VL: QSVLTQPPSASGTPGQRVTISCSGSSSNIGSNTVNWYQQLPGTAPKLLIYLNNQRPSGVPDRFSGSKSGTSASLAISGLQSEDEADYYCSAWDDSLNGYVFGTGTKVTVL

Target: T1, KDR (human, UniProt P35968 20-1356)
Experiment: cell-based or functional assay

T1 sequence (P35968 20-1356): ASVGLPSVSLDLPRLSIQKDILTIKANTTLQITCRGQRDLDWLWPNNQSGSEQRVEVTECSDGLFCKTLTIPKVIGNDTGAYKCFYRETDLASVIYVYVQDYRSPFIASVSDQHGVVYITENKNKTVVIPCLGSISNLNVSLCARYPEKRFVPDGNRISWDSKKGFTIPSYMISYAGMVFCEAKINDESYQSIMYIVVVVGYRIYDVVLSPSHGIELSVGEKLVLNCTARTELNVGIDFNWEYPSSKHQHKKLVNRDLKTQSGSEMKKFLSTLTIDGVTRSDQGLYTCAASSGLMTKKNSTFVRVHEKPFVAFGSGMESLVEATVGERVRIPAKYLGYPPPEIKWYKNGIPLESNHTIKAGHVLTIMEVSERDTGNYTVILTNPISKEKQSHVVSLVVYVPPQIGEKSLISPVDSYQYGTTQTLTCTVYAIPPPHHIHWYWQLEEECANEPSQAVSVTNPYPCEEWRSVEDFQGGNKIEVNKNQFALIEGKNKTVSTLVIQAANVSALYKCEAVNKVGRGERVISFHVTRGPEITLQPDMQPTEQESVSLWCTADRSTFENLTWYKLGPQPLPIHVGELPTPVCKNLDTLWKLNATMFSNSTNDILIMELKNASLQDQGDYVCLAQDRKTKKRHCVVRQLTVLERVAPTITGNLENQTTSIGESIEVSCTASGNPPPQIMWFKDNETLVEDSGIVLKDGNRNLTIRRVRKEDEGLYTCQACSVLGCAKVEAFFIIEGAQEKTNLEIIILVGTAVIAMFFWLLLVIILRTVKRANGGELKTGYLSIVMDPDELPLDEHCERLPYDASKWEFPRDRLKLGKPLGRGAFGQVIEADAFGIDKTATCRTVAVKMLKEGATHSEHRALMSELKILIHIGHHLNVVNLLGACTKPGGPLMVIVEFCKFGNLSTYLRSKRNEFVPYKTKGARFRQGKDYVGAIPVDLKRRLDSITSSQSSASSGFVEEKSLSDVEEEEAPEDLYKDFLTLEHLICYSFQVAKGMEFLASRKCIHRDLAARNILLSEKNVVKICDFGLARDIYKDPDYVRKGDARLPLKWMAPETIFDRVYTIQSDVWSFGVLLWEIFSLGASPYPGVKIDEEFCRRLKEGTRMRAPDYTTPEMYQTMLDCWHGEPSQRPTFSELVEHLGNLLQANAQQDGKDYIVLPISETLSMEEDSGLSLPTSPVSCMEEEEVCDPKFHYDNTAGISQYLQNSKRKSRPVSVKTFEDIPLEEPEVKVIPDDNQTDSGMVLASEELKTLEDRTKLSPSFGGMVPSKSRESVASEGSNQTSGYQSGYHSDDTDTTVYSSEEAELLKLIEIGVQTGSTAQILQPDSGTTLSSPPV

Row | Binder | Activity at 133 nM (% Inhibition), 24-hour Pre-incubation at 37° C., Average [%] | Activity at 133 nM (% Inhibition), 24-hour Pre-incubation at 37° C., N = 1 [%] | Activity at 133 nM (% Inhibition), 24-hour Pre-incubation at 37° C., N = 2 [%]
1 | B1 | 85 | 88 | 82
2 | B2 | 9 | 19 | 0
3 | B3 | 8 | 19 | -4
4 | B4 | -1 | -3 | 2
5 | B5 | 38 | 39 | 37
6 | B6 | 67 | 45 | 88
7 | B7 | 26 | 23 | 30
8 | B8 | 83 | 69 | 97

Target: T1, KDR
Experiment: cell-based or functional assay
Remark: another data set of the same source

Row | Binder | Activity at 133 nM (% Inhibition), 1-hour Pre-incubation at 4° C., Average [%] | Activity at 133 nM (% Inhibition), 1-hour Pre-incubation at 4° C., N = 1 [%] | Activity at 133 nM (% Inhibition), 1-hour Pre-incubation at 4° C., N = 2 [%]
9 | B1 | 87 | 86 | 88
10 | B2 | 67 | 63 | 72
11 | B3 | 65 | 60 | 69
12 | B4 | 26 | 21 | 31
13 | B5 | 27 | 26 | 28
14 | B6 | 80 | 78 | 83
15 | B7 | 44 | 36 | 52
16 | B8 | 33 | 29 | 37

Target: T1, KDR
Experiment: cell-based or functional assay
Remark: another data set of the same source

Row | Binder | % of Max VEGF KDR pTyr Activity (at 133 nM antibody concentration), Average [%] | % of Max VEGF KDR pTyr Activity (at 133 nM antibody concentration), N = 1 [%] | % of Max VEGF KDR pTyr Activity (at 133 nM antibody concentration), N = 2 [%]
17 | B1 | 7 | 7 | 7
18 | B2 | 19 | 22 | 17
19 | B3 | 18 | 19 | 17
20 | B4 | 15 | 16 | 13
21 | B5 | 12 | 12 | 12
22 | B6 | 8 | 6 | 10
23 | B7 | 16 | 19 | 12
24 | B8 | 10 | 11 | 8

Target: T1, KDR
Experiment: cell-based or functional assay
Remark: another data set of the same source

Row | Binder | Activity at 133 nM Antibody Concentration (% Survival Inhibition), Average [%] | Activity at 133 nM Antibody Concentration (% Survival Inhibition), N = 1 [%] | Activity at 133 nM Antibody Concentration (% Survival Inhibition), N = 2 [%]
25 | B1 | 73 | 80 | 66
26 | B2 | 83 | 86 | 81
27 | B3 | 76 | 84 | 68
28 | B4 | -18 | -20 | -16
29 | B5 | -51 | -9 | -92
30 | B6 | 103 | 104 | 102
31 | B7 | -12 | 3 | -27
32 | B8 | -16 | -5 | -27

Target: T1, KDR
Experiment: cell-based or functional assay
Remark: another data set of the same source

Row | Binder | % Inhibition of VEGF165-mediated 6-keto Prostaglandin F1α release at 133 nM Antibody Concentration, Average [%] | % Inhibition of VEGF165-mediated 6-keto Prostaglandin F1α release at 133 nM Antibody Concentration, N = 1 [%] | % Inhibition of VEGF165-mediated 6-keto Prostaglandin F1α release at 133 nM Antibody Concentration, N = 2 [%]
33 | B1 | 95 | 76 | 114
34 | B2 | 88 | 54 | 121
35 | B3 | 84 | 56 | 111
36 | B4 | 33 | 5 | 61
37 | B5 | 10 | 4 | 15
38 | B6 | 142 | 106 | 178
39 | B7 | 19 | 1 | 38
40 | B8 | 24 | 15 | 33
